Laboratory results as given in the supplement of paper PMC10126150.
± gives the standard deviation of the averaged measurements.

Test system: ATP
Experiment: switch fluorescence ratio, 500 uM ATP over buffer (Cy3 cluster intensity, sum of 5 cycles each) (fold (ratio)); higher = stronger signal-on switching upon ATP binding; sequences stand for … in TCGTCGGCAGCGTCAGATGTGTATAAGAGACAGTTTTTTTTTTTTTTTTTTTTTTTTT…TC
Details: aptamer strand: ATP DNA aptamer (quencher-CACCTGGGGGAGTATTGCGGAGGAAGG + anchor), 100 nM annealed; ATP concentration: 500 uM
Method in brief: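 After annealing to 100 nM quencher-labelled ATP aptamer, Cy3-labelled switching-strand clusters on a modified Illumina MiSeq flow-cell were imaged in selection buffer. A second image followed after 15 min with 500 uM ATP at 22 °C, and five such buffer/ATP cycles were done, each separated by NaOH stripping and re-annealing. The fluorescence ratio, averaged per switch-domain sequence, is summed target-cycle over summed buffer-cycle Cy3 intensity per cluster, with clusters outside 100-1000 RFU excluded.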
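Also: ATP exposure 15 min at 22 °C before imaging.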

| Sequence | switch fluorescence ratio |
| --- | --- |
| TGACATTCGA | 1.0321 ± 0.00051 |
| TGACCAGGCA | 1.05 ± 0.056 |
| TGACCGTTTT | 0.999 ± 0.025 |
| TGACGACGCC | 4.6 ± 0.054 |
| TGACGAGCGA | 2.25 ± 0.24 |
| TGACGAGTAA | 1.5 ± 0.28 |
| TGACGGATGC | 1.197 ± 0.01 |
| TGACGGTAGC | 1.06 ± 0.056 |
| TGACGGTTTA | 1.023 ± 0.0016 |
| TGACGTACCC | 1.7 ± 0.05 |
| TGACGTGCGT | 1.02 ± 0.012 |
| TGACTAAACA | 1.056 ± 0.0059 |
| TGACTAGGGG | 0.949 ± 0.1 |
| TGACTGAAAA | 1.009 ± 0.007 |
| TGACTGGGTA | 1 ± 0.021 |
| TGACTGTTTG | 0.984 ± 0.04 |
| TGACTTAACT | 1.09 ± 0.034 |
| TGACTTGAGC | 1.01 ± 0.058 |
| TGACTTGGG | 0.935 ± 0.02 |
| TGACTTGGGG | 0.995 ± 0.033 |
| TGAGAAAGGG | 0.982 ± 0.0019 |
| TGAGAAAGGT | 0.965 ± 0.044 |
| TGAGAAGGGA | 1.02 ± 0.22 |

| Sequence | switch fluorescence ratio |
| --- | --- |
| TGAGAAGTCA | 0.9785 ± 0.0066 |
| TGAGAATGTT | 1.09 ± 0.19 |
| TGAGAGGTCT | 1.017 ± 0.0097 |
| TGAGAGTCAG | 0.986 ± 0.017 |
| TGAGAGTTAT | 1 ± 0.051 |
| TGAGAGTTTT | 0.978 ± 0.036 |
| TGAGATAACA | 0.9943 ± 0.0033 |
| TGAGATACGA | 1.0108 ± 0.0001 |
| TGAGATCCCT | 1.03 ± 0.039 |
| TGAGATGGTC | 1.004 ± 0.01 |
| TGAGATTTTG | 0.983 ± 0.045 |
| TGAGCCATCG | 0.987 ± 0.02 |
| TGAGCGAGTG | 0.957 ± 0.028 |
| TGAGCGGCAA | 1.2 ± 0.22 |
| TGAGCGGTTG | 1 ± 0.018 |
| TGAGCGTCGG | 0.968 ± 0.051 |
| TGAGCGTTGG | 0.9987 ± 0.0062 |
| TGAGCTATTG | 0.997 ± 0.015 |
| TGAGGAAGAC | 1.09 ± 0.014 |
| TGAGGAATTC | 1 ± 0.017 |
| TGAGGAGGG | 0.97516 ± 0.00046 |
| TGAGGAGGGA | 0.987 ± 0.013 |
| TGAGGATTTG | 1.02 ± 0.011 |

| Sequence | switch fluorescence ratio |
| --- | --- |
| TGAGGCCCAG | 1.01 ± 0.019 |
| TGAGGCCGGG | 1 ± 0.021 |
| TGAGGGGCAG | 0.984 ± 0.013 |
| TGAGGGGGCG | 1.03 ± 0.11 |
| TGAGGGGGCT | 0.9862 ± 0.0034 |
| TGAGGGGTGG | 0.961 ± 0.038 |
| TGAGGGTGGT | 0.981 ± 0.0012 |
| TGAGGGTGTT | 0.998 ± 0.011 |
| TGAGGGTTGC | 1.01 ± 0.018 |
| TGAGGTAGGC | 1.05 ± 0.024 |
| TGAGGTCAGA | 1.03 ± 0.013 |
| TGAGGTGAAA | 0.976 ± 0.03 |
| TGAGGTGCGT | 0.995 ± 0.033 |
| TGAGGTTTAG | 1.02 ± 0.028 |
| TGAGTAGGGG | 0.994 ± 0.017 |
| TGAGTATTAG | 0.999 ± 0.033 |
| TGAGTATTGC | 0.969 ± 0.04 |
| TGAGTATTGG | 0.99 ± 0.027 |
| TGAGTCAAGC | 1.01 ± 0.076 |
| TGAGTGAAAT | 1.1 ± 0.014 |
| TGAGTGAATG | 0.9787 ± 0.0042 |
| TGAGTGATGT | 1.01 ± 0.023 |
| TGAGTGCAGC | 1.08 ± 0.12 |

| Sequence | switch fluorescence ratio |
| --- | --- |
| TGAGTGGATG | 0.971 ± 0.075 |
| TGAGTTAGGC | 1.04 ± 0.054 |
| TGAGTTCGTA | 1.02 ± 0.012 |
| TGAGTTGAAG | 0.9869 ± 0.0056 |
| TGAGTTTGGT | 0.97 ± 0.018 |
| TGATAATTTG | 1.006 ± 0.01 |
| TGATACATAA | 1.028 ± 0.0097 |
| TGATACTGGG | 1.06 ± 0.06 |
| TGATACTTAG | 1.061 ± 0.0084 |
| TGATAGACAT | 0.988 ± 0.019 |
| TGATAGGATT | 0.9764 ± 0.0021 |
| TGATAGGGTG | 1.03 ± 0.053 |
| TGATATAGGA | 1.01 ± 0.064 |
| TGATATATTT | 1.02 ± 0.046 |
| TGATATTGGT | 1.01 ± 0.021 |
| TGATCAAGGA | 0.997 ± 0.041 |
| TGATCATGCG | 1 ± 0.011 |
| TGATCCGGAG | 1.08 ± 0.038 |
| TGATCCGGAT | 1.02 ± 0.09 |
| TGATCGGGCA | 0.956 ± 0.031 |
| TGATCGTGAG | 1.02 ± 0.017 |
| TGATGAGATC | 0.9734 ± 0.0082 |
| TGATGAGTCG | 1.0211 ± 0.00074 |

| Sequence | switch fluorescence ratio |
| --- | --- |
| TGATGATATA | 1.02 ± 0.013 |
| TGATGCAAGA | 1.3 ± 0.063 |
| TGATGCATGG | 1.05 ± 0.048 |
| TGATGGAGTA | 0.969 ± 0.016 |
| TGATGGCAAC | 1.11 ± 0.036 |
| TGATGGGGCG | 0.982 ± 0.023 |
| TGATGGGTC | 0.9961 ± 0.0054 |
| TGATGGTGC | 1.05 ± 0.066 |
| TGATGTGGGA | 1.027 ± 0.0047 |
| TGATGTTAAA | 0.998 ± 0.01 |
| TGATGTTATA | 0.968 ± 0.022 |
| TGATTAAGAT | 0.994 ± 0.026 |
| TGATTAGAGG | 1.02 ± 0.1 |
| TGATTATCTT | 1.047 ± 0.0097 |
| TGATTATTT | 0.978 ± 0.032 |
| TGATTCCGCT | 1.41 ± 0.025 |
| TGATTCCTGC | 1.02 ± 0.039 |
| TGATTCGAGC | 1.003 ± 0.0058 |
| TGATTCGGGT | 0.984 ± 0.029 |
| TGATTCGTTT | 0.985 ± 0.094 |
| TGATTGGTAA | 0.939 ± 0.021 |
| TGATTGTATC | 0.981 ± 0.055 |
| TGATTGTGTA | 0.987 ± 0.048 |

| Sequence | switch fluorescence ratio |
| --- | --- |
| TGATTGTTTG | 1.01 ± 0.034 |
| TGATTTAATA | 0.984 ± 0.025 |
| TGATTTATG | 1.01 ± 0.002 |
| TGATTTATTC | 0.9632 ± 0.0032 |
| TGATTTGGAC | 1.01 ± 0.061 |
| TGATTTTCTC | 1.01 ± 0.048 |
| TGATTTTGCC | 1.01 ± 0.018 |
| TGATTTTTGT | 0.997 ± 0.021 |
| TGCAAAAAGG | 1.03 ± 0.014 |
| TGCAAATTGC | 0.997 ± 0.019 |
| TGCAACCTCC | 2.29 ± 1.1 |
| TGCAAGGGCG | 0.981 ± 0.021 |
| TGCAATGATG | 1.04 ± 0.039 |
| TGCAATGGGC | 1.21 ± 0.086 |
| TGCAATGGGG | 1.12 ± 0.07 |
| TGCAATTCGT | 1.13 ± 0.033 |
| TGCAATTTCG | 1.07 ± 0.065 |
| TGCAATTTTA | 1.03 ± 0.023 |
| TGCACGATTG | 1.03 ± 0.03 |
| TGCACGGCTT | 1.13 ± 0.03 |
| TGCACTAGAA | 1.01 ± 0.017 |
| TGCAGATCGG | 0.9927 ± 0.0028 |
| TGCAGATTTT | 0.994 ± 0.033 |

| Sequence | switch fluorescence ratio |
| --- | --- |
| TGCAGCATCT | 1.13 ± 0.032 |
| TGCAGCTTGC | 1.25 ± 0.24 |
| TGCAGGAATT | 1.09 ± 0.17 |
| TGCAGGGGTT | 1.05 ± 0.02 |
| TGCAGTGGGG | 1.014 ± 0.0085 |
| TGCATATAAT | 1.018 ± 0.0014 |
| TGCATATATA | 1.29 ± 0.36 |
| TGCATGTCTC | 1.43 ± 0.46 |
| TGCATGTCTT | 0.998 ± 0.033 |
| TGCATTAATG | 0.989 ± 0.012 |
| TGCATTAGGG | 0.993 ± 0.046 |
| TGCATTCAGG | 1.02 ± 0.03 |
| TGCATTCTTT | 0.9999 ± 0.0052 |
| TGCATTTATG | 1.02 ± 0.043 |
| TGCCAAGGTT | 1.02 ± 0.034 |
| TGCCACTCTG | 1.025 ± 0.008 |
| TGCCAGTGTT | 1.22 ± 0.32 |
| TGCCAGTTTG | 0.9907 ± 0.0065 |
| TGCCATAATG | 1.02 ± 0.0057 |
